In US20230324389:

Sequence of MMP9 (chain, as listed by the source): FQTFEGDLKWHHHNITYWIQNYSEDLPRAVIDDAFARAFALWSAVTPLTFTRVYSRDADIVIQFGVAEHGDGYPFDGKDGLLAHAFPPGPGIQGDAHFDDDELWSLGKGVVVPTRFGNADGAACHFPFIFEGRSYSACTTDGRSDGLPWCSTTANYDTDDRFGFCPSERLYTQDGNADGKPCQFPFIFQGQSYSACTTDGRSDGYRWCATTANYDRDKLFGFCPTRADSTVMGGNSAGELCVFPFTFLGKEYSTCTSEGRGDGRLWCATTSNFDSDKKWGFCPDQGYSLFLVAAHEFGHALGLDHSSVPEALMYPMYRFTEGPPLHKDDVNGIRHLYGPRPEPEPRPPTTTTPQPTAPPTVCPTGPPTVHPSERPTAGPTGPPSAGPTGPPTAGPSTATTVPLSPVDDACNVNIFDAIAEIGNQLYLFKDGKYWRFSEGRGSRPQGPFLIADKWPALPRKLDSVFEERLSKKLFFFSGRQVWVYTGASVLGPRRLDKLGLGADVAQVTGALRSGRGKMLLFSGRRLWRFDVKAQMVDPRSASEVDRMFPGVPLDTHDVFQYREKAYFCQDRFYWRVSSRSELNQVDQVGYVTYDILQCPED

Urokinase-type Plasminogen Activator (uPA)
unmasking (protease cleavage) activity (818-P1): Unmasking activity attributable to uPA required higher concentrations of proteases and longer digestion times
unmasking (protease cleavage) activity (818-C1 MB): Unmasking activity attributable to uPA required higher concentrations of proteases and longer digestion times
unmasking (protease cleavage) activity (818-C1MA): Unmasking activity attributable to uPA required higher concentrations of proteases and longer digestion times

MMP9
unmasking (protease cleavage) rate (818-P1): MMP9: 818-P1>818-C1 MB>818-C1MA
unmasking (protease cleavage) rate (818-C1 MB): MMP9: 818-P1>818-C1 MB>818-C1MA
unmasking (protease cleavage) rate (818-C1MA): MMP9: 818-P1>818-C1 MB>818-C1MA
